Results on two molecules are retold here after patent US8318172B2, “Breaking immunological tolerance with a genetically encoded unnatural amino acid” (The Scripps Research Institute, priority 2008, dated 2012).

Assay [1] deals with CD4+ T cells from immunized mice. Put plainly: T cell proliferation assay. Type of assay: cell-based. Conditions: Bcl-2 mice, stimulated in vitro with pNO2Phe^86 mTNFα.
Description: For mice immunized without adjuvant, the RIMMS protocol involved 8 injections (5 μg protein/injection) over a period of 17 days. For mice immunized with adjuvant, CFA was used for the first injection and IFA for the remaining 7 injections. […] To perform the T-cell proliferation assays, CD4^+ T cells from immunized mice were isolated from lymph nodes by magnetic depletion with MACS beads (Miltenyi Biotec). T cells were then placed into culture with irradiated splenocytes from naïve Bcl-2 mice and increasing amounts of antigen. The cultures were incubated for 48 h and then pulsed with [^3H]thymidine overnight. The culture plates were harvested onto filter mats and radioactivity was quantified with a TopCount scintillation counter (PerkinElmer).
Isolation of CD4^+ T cells from the lymph nodes of immunized C57BL/6 mice was carried out by magnetic depletion with MACS beads (Miltenyi Biotec, Auburn, Calif.). T cells were then placed into culture with irradiated splenocytes from naïve C57BL/6 mice and increasing amounts of antigen. Following incubation for 48 h, the cultures were incubated with ^3H-thymidine overnight. After harvesting the culture plates onto filter mats, radioactivity was quantified with a TopCount scintillation counter (PerkinElmer, Boston, Mass.).
The target in assay [2] is T1, WT mTNFα (Mus musculus, UniProt P06804).
T1 construct: ELISAs were measured against WT mTNFα aa 1-156; His6 tag followed by factor Xa cleavage site (N, cleaved yes); made in house; host or cells: E. coli BL21(DE3)
T1 sequence (P06804 80-235): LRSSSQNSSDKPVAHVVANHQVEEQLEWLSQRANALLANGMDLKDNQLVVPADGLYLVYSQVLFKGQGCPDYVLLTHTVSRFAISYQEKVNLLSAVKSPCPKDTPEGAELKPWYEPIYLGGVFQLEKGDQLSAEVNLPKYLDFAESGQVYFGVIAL
The format is in vivo, mice. The procedure: (§1) The plates were washed with PBST between incubations.
(§2) 30 μl of 0.5 μg/ml protein was used to coat the wells of Maxisorp 384-well plates (Nunc, Rochester, N.Y.) overnight at 4° C. After washing with PBS+0.05% Tween 20 (PBST), the coated plates were blocked with 80 μl of 1% BSA in PBS, and washed again with PBST. The plates were sequentially incubated with 20 μl of primary antibody or serum diluted in 1% BSA in PBS, 20 μl of HRP-conjugated goat anti-mouse IgG or anti-mouse IgM (Jackson ImmunoResearch Laboratories, West Grove, Pa.), and 20 μl of TMB substrate (KPL, Gaithersburg, Md.), and read at an absorbance of 650 nm. Between incubations, the plates were washed at least six times with PBST.

Assay [3] has as its system NFκB pathway in HEK293 cells stably expressing NFκB-Luc. Conditions: NF-κB-luciferase activity analysis of mTNFα variants.
Description: The biological activities of the proteins were assayed by measuring the mTNFα-induced activation of NFκB pathway in a NFκB-luciferase reporter cell line. […] The stable cells were dissociated with trypsin, resuspended in DMEM containing 10% FBS at 5×10^5 cells/ml, and plated at 20 μl/well in 384-well white plate (Greiner, Longwood, Fla.). After 2 hours incubation at 5% CO2 in a 37° C. tissue culture incubator, 20 μl of TNFα was added to the cells. The cells were continuously incubated for 24 hours. Luciferase activities were measured by addition of 20 μl Bright-Glo (Promega, Madison, Wis.), and the plate was read using a luminescence plate reader.
The activity of pNO2Phe mTNFα mutants was determined by an NFκB-luciferase reporter gene assay using HEK293 cells stably expressing NFκB-luciferase as described previously (Grunewald, J. et al. (2008) “Immunochemical termination of self-tolerance.” Proc Natl Acad Sci USA 105: 11276-11280).
Assay [4] relates to WT mTNFα. The format is in vivo, mice. Conditions: C57BL/6 mice, 8 injections of 5 μg over 17 days, CFA/IFA, serum diluted 1/1000. The procedure: as §1, §2
In assay [5] the test system is C57BL/6 mice, lipopolysaccharide (LPS) challenge. Put plainly: LPS challenge in TNFα-dependent severe endotoxemia mouse model. The format is in vivo.

B1: Phe^86 mTNFα: Tyr^86 Phe mutant of mTNFα, control without NO2 group (protein)
chain: LRSSSQNSSDKPVAHVVANHQVEEQLEWLSQRANALLANGMDLKDNQLVVPADGLYLVYSQVLFKGQGCPDYVLLTHTVSRFAISFQEKVNLLSAVKSPCPKDTPEGAELKPWYEPIYLGGVFQLEKGDQLSAEVNLPKYLDFAESGQVYFGVIAL
In the case of B1, the “CD4+ T cells specific for pNO2Phe^86 mTNFα elicited by immunization” value in assay [1] was “not when mice were immunized”. Further, the anti-TNFα titers result with WT mTNFα [2] (Bcl2 mice, presence or absence of CFA/IFA) was “no significant anti-TNFα titers”.

B2: WT mTNFα: wild-type murine tumor necrosis factor-α expressed in E. coli (protein)
chain: MSTESMIRDVELAEEALPQKMGGFQNSRRCLCLSLFSFLLVAGATTLFCLLNFGVIGPQRDEKFPNGLPLISSMAQTLTLRSSSQNSSDKPVAHVVANHQVEEQLEWLSQRANALLANGMDLKDNQLVVPADGLYLVYSQVLFKGQGCPDYVLLTHTVSRFAISYQEKVNLLSAVKSPCPKDTPEGAELKPWYEPIYLGGVFQLEKGDQLSAEVNLPKYLDFAESGQVYFGVIAL
As for B2, the “CD4+ T cells specific for pNO2Phe^86 mTNFα elicited by immunization” value in assay [1] is recorded as “not when mice were immunized”. The concentration for a half-maximal effect (EC50) (as a rule, the midpoint of the concentration-response curve) in assay [3] amounted to 216 pM. Also, the “serum IgG titers against pNO2Phe^86 mTNFα and WT mTNFα” value with WT mTNFα [4] is reported as “insignificant serum IgG titers”. Moreover, the “sustaining titers of cross-reactive anti-mTNFα antibodies” value with WT mTNFα [2] (one injection of pNO2Phe^86 mTNFα in CFA, then 7 injections in IFA) is “cannot sustain significant titers”. The survival rate in assay [5] (active immunization, C57BL/6 mice, LPS 8.5 mg/kg i.p.) is reported as 12.5%; in assay [5] (passive: pooled serum (100 uL) or purified IgG (4 mg/kg) from immunized Bcl-2 mice, LPS 7.5 mg/kg) it was 16.7-25.0%.
